{"source": "paper PMC3916239", "about": "“Distinct DNA Binding Sites Contribute to the TCF Transcriptional Switch in C. elegans and Drosophila”", "key": {"POP-1 [1]": {"biological_target": "T1, POP-1 (Caenorhabditis elegans, UniProt Q10666 1-438)", "T1 sequence": "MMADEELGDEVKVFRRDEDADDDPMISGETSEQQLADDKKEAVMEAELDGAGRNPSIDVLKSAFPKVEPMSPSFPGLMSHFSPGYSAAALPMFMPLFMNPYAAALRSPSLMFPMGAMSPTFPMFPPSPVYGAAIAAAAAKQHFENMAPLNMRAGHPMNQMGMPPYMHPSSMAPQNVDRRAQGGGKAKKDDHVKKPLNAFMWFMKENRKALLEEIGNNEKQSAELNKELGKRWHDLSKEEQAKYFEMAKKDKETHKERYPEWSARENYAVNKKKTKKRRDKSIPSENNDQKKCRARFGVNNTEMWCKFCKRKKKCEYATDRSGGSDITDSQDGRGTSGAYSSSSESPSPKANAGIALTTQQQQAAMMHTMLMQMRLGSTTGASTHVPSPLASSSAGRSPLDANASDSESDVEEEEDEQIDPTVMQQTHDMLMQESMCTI", "assay": "EMSA; 10 mM Tris-HCl pH 7.5, 50 mM KCl, 1 mM DTT, 5 mM MgCl2, 0.05% NP-40, 50 ug/ml poly(dI-dC), glycerol; 20 ul; 5 min on ice then 25 min room temperature; 6% native gel", "details": "protein: recombinant, tags: 6xHis"}, "POP-1 [2]": {"biological_target": "T1, POP-1", "assay": "competition; no competition at 200-fold excess; 10 mM Tris-HCl pH 7.5, 50 mM KCl, 1 mM DTT, 5 mM MgCl2, 0.05% NP-40, 50 ug/ml poly(dI-dC), glycerol; 20 ul; 5 min on ice then 25 min room temperature; 6% native gel", "details": "protein: recombinant; tags: 6xHis"}}}
{"binder": "K08D12.3 long WT probe (dsDNA) DNA 1: CTGGCACGCGGCCAACATTCGATTTTGGGACGATCGACACGTTCTGGCCACATTTTCTTTGATTTTTTCTGATTTCGCCGACTTTTTTC DNA 2: GAAAAAAGTCGGCGAAATCAGAAAAAATCAAAGAAAATGTGGCCAGAACGTGTCGATCGTCCCAAAATCGAATGTTGGCCGCGTGCCAG", "values": [{"measurement": "binding result", "setting": "POP-1 [1]; label: biotin (labeled probe)", "result": "binds"}]}
{"binder": "K08D12.3 Helper3 mutant (dsDNA) DNA 1: CTGGCACGCGGCCAACATTCGATTTTGGGACGATCGACACGTTCTGGCCACATTTTCTTTGATTTTTTCTGATTTCTAATCAGTTTTTC DNA 2: GAAAAACTGATTAGAAATCAGAAAAAATCAAAGAAAATGTGGCCAGAACGTGTCGATCGTCCCAAAATCGAATGTTGGCCGCGTGCCAG", "values": [{"measurement": "binding result", "setting": "POP-1 [2]", "result": "no binding"}]}
{"binder": "K08D12.3 HMG mutant (dsDNA) DNA 1: CTGGCACGCGGCCAACATTCGATTTTGGGACGATCGACACGTTCTGGCCACATTTTCTGTGCGTTTTTCTGATTTCGCCGACTTTTTTC DNA 2: GAAAAAAGTCGGCGAAATCAGAAAAACGCACAGAAAATGTGGCCAGAACGTGTCGATCGTCCCAAAATCGAATGTTGGCCGCGTGCCAG", "values": [{"measurement": "binding result", "setting": "POP-1 [2]", "result": "no binding"}]}
{"binder": "R05G6.5 probe (dsDNA) DNA 1: CGGTCGCCGCGCCAATGTGCTTGCCTTTGAACTCTCAATTTGCTGTTGTGGCGTGAT DNA 2: ATCACGCCACAACAGCAAATTGAGAGTTCAAAGGCAAGCACATTGGCGCGGCGACCG", "values": [{"measurement": "binding result", "setting": "POP-1 [1]; label: biotin", "result": "no binding"}]}
{"binder": "psa-3 WRE WT probe 47 bp (dsDNA) DNA 1: ACCGTTATGGCCGTGGAGGCTCTTTTGATGTGCAGCCGACAAGTACG DNA 2: CGTACTTGTCGGCTGCACATCAAAAGAGCCTCCACGGCCATAACGGT", "values": [{"measurement": "binding result", "setting": "POP-1 [1]; label: biotin (labeled probe)", "result": "binds"}]}
{"binder": "ceh-22b WRE WT probe 69 bp (dsDNA) DNA 1: TACGAGAAGCGGCGATTCAAGAGTTTCAAATAACTTCTCCACCGCCTTTTGAAGTTGCCGAAAATAGTT DNA 2: AACTATTTTCGGCAACTTCAAAAGGCGGTGGAGAAGTTATTTGAAACTCTTGAATCGCCGCTTCTCGTA", "values": [{"measurement": "binding result", "setting": "POP-1 [1]; label: biotin (labeled probe)", "result": "binds"}]}
{"binder": "Y66D12A.9 probe (dsDNA) DNA 1: TTGGCGCCGAGCACATATTTCCCATCGGAAGCTTTGAAATAGTCGAGCCCGCGGCCACTT DNA 2: AAGTGGCCGCGGGCTCGACTATTTCAAAGCTTCCGATGGGAAATATGTGCTCGGCGCCAA", "values": [{"measurement": "binding result", "setting": "POP-1 [1]; label: biotin", "result": "no binding"}]}
